Results reported in patent US20240165282A1, “CONFORMATIONAL CONSTRAINED SOMATOSTATIN RECEPTOR 3 PEPTIDE LIGANDS AND THEIR CONJUGATES AND USES THEREOF” (STARGET PHARMA LTD., priority 2021, published 2024).
*1 amine or outer side, *2 acyl side, *3 side chain or, on linkers, in order; H or OH if unused. Bridges are numbered along the chain shown (N, C = ends). [ ]: non-standard residue; d: D form. The star is where a group is joined. DOTA = O=C(O)CN1CCN(CC(=O)O)CCN(CC(=O)*)CCN(CC(=O)O)CC1; N(2-mercaptoethyl)Gly = O=C(CN(CCS[*:3])[*:1])[*:2]

How the values were obtained:
[1] = molecular target: human cloned somatostatin receptor 3 (human) (UniProt P32745); test: 125I-Tyr11-SRIF-14 displacement
[2] = molecular target: human cloned somatostatin receptor 5 (human) (UniProt P35346); test: 125I-Tyr11-SRIF-14 displacement
[3] = molecular target: human cloned somatostatin receptor 2 (human) (UniProt P30874); test: 125I-Tyr11-SRIF-14 displacement
[4] = molecular target: human cloned somatostatin receptor 1 (human) (UniProt P30872); test: 125I-Tyr11-SRIF-14 displacement
HRH4 (human) = HRH4 (human) (UniProt Q9H3N8); test: cell-based or functional assay
GPR109B (human) = GPR109B (human) (UniProt P49019); test: cell-based or functional assay
CHRM2 (human) = CHRM2 (human) (UniProt P08172); test: cell-based or functional assay
AVPR2 (human) = AVPR2 (human) (UniProt P30518); test: cell-based or functional assay
EDG1 (human) = EDG1 (human) (UniProt P21453); test: cell-based or functional assay
ADRA2B (human) = ADRA2B (human) (UniProt P18089); test: cell-based or functional assay
GLP1R (human) = GLP1R (human) (UniProt P43220); test: cell-based or functional assay
CHRM1 (human) = CHRM1 (human) (UniProt P11229); test: cell-based or functional assay
CXCR7 (human) = CXCR7 (human) (UniProt P25106); test: cell-based or functional assay
NPBWR2 (human) = NPBWR2 (human) (UniProt P48146); test: cell-based or functional assay
MCHR2 (human) = MCHR2 (human) (UniProt Q969V1); test: cell-based or functional assay
F2RL3 (human) = F2RL3 (human) (UniProt Q96RI0); test: cell-based or functional assay
BRS3 (human) = BRS3 (human) (UniProt P32247); test: cell-based or functional assay
[5] = molecular target: human cloned somatostatin receptor 2 (human) (UniProt P30874); test: cell-based or functional assay
P2RY2 (human) = P2RY2 (human) (UniProt P41231); test: cell-based or functional assay
CCR1 (human) = CCR1 (human) (UniProt P32246); test: cell-based or functional assay
OXTR (human) = OXTR (human) (UniProt P30559); test: cell-based or functional assay
P2RY4 (human) = P2RY4 (human) (UniProt P51582); test: cell-based or functional assay
OPRK1 (human) = OPRK1 (human) (UniProt P41145); test: cell-based or functional assay
GPR120 (human) = GPR120 (human) (UniProt Q5NUL3); test: cell-based or functional assay
EDNRA (human) = EDNRA (human) (UniProt P25101); test: cell-based or functional assay
ADRB2 (human) = ADRB2 (human) (UniProt P07550); test: cell-based or functional assay
GPR103 (human) = GPR103 (human) (UniProt Q96P65); test: cell-based or functional assay
CCR7 (human) = CCR7 (human) (UniProt P32248); test: cell-based or functional assay
CNR1 (human) = CNR1 (human) (UniProt P21554); test: cell-based or functional assay
[6] = molecular target: human cloned somatostatin receptor 1 (human) (UniProt P30872); test: cell-based or functional assay
ADRB1 (human) = ADRB1 (human) (UniProt P08588); test: cell-based or functional assay
CHRM4 (human) = CHRM4 (human) (UniProt P08173); test: cell-based or functional assay
DRD1 (human) = DRD1 (human) (UniProt P21728); test: cell-based or functional assay
GCGR (human) = GCGR (human) (UniProt P47871); test: cell-based or functional assay
BDKRB2 (human) = BDKRB2 (human) (UniProt P30411); test: cell-based or functional assay
PPYR1 (human) = PPYR1 (human) (UniProt P50391); test: cell-based or functional assay
PRLHR (human) = PRLHR (human) (UniProt P49683); test: cell-based or functional assay
CXCR6 (human) = CXCR6 (human) (UniProt O00574); test: cell-based or functional assay
CCR6 (human) = CCR6 (human) (UniProt P51684); test: cell-based or functional assay
CXCR3 (human) = CXCR3 (human) (UniProt P49682); test: cell-based or functional assay
CRTH2 (human) = CRTH2 (human) (UniProt Q9Y5Y4); test: cell-based or functional assay
CCR5 (human) = CCR5 (human) (UniProt P51681); test: cell-based or functional assay
CCKBR (human) = CCKBR (human) (UniProt P32239); test: cell-based or functional assay
EDNRB (human) = EDNRB (human) (UniProt P24530); test: cell-based or functional assay
TSHR(L) (human) = TSHR(L) (human) (UniProt P16473); test: cell-based or functional assay
ADRA2A (human) = ADRA2A (human) (UniProt P08913); test: cell-based or functional assay
ADRA2C (human) = ADRA2C (human) (UniProt P18825); test: cell-based or functional assay
RXFP3 (human) = RXFP3 (human) (UniProt Q9NSD7); test: cell-based or functional assay
F2RL1 (human) = F2RL1 (human) (UniProt P55085); test: cell-based or functional assay
HTR2A (human) = HTR2A (human) (UniProt P28223); test: cell-based or functional assay
F2R (human) = F2R (human) (UniProt P25116); test: cell-based or functional assay
FFAR1 (human) = FFAR1 (human) (UniProt O14842); test: cell-based or functional assay
NMU1R (human) = NMU1R (human) (UniProt Q9HB89); test: cell-based or functional assay
(CR)L-RAMP1 (human) = (CR)L-RAMP1 (human) (UniProt Q16602); test: cell-based or functional assay
PTGER4 (human) = PTGER4 (human) (UniProt P35408); test: cell-based or functional assay

human cloned somatostatin receptor 2 (human), sequence (P30874 whole entry): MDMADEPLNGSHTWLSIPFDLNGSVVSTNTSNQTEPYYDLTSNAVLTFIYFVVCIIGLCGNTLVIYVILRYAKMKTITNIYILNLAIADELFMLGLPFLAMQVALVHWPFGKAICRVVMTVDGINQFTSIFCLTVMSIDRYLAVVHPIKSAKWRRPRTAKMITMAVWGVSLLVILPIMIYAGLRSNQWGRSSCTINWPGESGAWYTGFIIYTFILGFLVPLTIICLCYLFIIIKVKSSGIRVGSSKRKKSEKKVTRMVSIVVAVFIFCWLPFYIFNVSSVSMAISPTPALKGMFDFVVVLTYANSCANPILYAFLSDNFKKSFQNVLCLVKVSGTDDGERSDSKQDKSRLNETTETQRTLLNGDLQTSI
human cloned somatostatin receptor 1 (human), sequence (P30872 whole entry): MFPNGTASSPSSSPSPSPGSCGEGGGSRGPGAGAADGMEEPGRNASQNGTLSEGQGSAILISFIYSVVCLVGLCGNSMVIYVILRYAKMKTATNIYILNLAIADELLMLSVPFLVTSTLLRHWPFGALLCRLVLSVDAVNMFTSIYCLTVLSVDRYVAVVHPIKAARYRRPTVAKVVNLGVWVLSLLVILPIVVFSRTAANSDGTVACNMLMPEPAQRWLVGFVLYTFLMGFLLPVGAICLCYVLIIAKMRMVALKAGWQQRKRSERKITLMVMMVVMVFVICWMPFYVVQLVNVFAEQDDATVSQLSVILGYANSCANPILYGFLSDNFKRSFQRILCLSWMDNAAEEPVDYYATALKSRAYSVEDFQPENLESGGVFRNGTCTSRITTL
human cloned somatostatin receptor 5 (human), sequence (P35346 whole entry): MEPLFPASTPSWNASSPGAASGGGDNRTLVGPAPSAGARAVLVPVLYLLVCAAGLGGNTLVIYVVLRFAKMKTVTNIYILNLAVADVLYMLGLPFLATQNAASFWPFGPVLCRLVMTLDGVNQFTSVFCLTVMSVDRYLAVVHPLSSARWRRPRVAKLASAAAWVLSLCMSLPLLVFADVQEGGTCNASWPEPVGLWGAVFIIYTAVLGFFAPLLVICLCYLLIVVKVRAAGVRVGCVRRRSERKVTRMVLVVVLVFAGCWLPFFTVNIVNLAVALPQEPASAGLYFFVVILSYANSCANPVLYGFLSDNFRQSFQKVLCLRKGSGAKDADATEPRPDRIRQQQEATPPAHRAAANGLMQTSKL
HTR2A (human), sequence (P28223 whole entry): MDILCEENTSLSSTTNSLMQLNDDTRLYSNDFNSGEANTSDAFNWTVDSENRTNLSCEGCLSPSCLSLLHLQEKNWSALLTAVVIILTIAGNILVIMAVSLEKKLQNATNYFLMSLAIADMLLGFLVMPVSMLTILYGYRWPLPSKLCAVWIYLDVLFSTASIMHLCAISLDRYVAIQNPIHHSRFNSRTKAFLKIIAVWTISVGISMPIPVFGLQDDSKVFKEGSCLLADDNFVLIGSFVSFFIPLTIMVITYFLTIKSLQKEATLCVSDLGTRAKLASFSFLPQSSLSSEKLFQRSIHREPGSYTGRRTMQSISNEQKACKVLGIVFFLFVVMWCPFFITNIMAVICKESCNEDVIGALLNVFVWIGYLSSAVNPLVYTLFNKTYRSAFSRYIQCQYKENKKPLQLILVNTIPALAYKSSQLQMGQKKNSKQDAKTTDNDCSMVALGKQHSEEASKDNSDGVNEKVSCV
F2RL1 (human), sequence (P55085 37-397): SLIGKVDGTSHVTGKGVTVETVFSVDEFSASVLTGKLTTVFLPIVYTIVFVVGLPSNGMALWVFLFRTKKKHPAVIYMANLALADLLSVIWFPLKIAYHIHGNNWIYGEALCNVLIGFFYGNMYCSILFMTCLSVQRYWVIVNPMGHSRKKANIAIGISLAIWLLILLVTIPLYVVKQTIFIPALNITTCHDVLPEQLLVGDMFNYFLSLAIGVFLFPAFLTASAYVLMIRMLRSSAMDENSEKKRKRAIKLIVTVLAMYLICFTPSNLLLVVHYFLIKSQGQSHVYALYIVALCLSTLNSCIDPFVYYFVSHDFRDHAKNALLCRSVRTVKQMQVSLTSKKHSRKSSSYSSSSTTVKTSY
CCKBR (human), sequence (P32239 whole entry): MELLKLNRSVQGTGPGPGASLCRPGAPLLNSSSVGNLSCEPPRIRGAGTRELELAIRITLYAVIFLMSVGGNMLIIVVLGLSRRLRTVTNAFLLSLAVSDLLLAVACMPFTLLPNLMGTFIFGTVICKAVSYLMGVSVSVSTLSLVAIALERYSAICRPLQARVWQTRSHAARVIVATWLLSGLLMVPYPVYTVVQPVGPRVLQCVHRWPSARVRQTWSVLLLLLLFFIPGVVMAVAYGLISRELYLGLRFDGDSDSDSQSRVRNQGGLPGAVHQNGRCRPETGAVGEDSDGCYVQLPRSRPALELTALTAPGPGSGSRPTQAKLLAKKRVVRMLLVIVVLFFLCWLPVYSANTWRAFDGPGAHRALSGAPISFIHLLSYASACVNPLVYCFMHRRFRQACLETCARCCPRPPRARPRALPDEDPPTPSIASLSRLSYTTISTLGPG
CNR1 (human), sequence (P21554 whole entry): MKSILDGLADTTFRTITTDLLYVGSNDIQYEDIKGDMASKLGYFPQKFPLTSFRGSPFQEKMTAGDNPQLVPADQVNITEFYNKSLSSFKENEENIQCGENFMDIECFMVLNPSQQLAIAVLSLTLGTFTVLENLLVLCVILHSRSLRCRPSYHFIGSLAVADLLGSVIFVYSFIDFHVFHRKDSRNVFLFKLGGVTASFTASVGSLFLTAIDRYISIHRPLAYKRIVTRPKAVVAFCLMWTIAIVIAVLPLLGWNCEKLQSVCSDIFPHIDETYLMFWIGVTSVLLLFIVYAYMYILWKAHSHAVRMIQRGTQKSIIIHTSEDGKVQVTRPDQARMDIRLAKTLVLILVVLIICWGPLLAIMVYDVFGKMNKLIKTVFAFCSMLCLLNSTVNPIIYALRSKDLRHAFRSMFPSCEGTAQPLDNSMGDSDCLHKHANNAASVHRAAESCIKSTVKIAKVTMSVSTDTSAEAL
GPR103 (human), sequence (Q96P65 whole entry): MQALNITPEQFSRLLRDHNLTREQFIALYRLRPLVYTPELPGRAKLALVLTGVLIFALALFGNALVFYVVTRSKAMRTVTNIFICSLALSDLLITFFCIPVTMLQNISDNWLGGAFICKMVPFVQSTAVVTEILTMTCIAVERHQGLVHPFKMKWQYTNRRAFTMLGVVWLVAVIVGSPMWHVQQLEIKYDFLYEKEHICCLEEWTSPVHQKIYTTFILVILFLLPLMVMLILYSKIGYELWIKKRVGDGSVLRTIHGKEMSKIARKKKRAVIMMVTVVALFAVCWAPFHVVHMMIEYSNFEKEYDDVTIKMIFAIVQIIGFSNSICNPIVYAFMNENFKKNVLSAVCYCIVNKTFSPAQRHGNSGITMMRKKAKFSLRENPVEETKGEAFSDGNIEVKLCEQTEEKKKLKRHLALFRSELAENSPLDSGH
CXCR6 (human), sequence (O00574 whole entry): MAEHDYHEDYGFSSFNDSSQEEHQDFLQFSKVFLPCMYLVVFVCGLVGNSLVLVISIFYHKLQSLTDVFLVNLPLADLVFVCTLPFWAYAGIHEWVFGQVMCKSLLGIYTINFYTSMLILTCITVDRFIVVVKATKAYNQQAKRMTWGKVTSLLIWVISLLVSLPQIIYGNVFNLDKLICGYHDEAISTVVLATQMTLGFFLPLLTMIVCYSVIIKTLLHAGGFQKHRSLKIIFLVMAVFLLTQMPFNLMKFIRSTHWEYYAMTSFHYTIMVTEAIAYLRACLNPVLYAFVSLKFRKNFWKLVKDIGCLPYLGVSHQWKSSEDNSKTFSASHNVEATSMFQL
F2RL3 (human), sequence (Q96RI0 48-385): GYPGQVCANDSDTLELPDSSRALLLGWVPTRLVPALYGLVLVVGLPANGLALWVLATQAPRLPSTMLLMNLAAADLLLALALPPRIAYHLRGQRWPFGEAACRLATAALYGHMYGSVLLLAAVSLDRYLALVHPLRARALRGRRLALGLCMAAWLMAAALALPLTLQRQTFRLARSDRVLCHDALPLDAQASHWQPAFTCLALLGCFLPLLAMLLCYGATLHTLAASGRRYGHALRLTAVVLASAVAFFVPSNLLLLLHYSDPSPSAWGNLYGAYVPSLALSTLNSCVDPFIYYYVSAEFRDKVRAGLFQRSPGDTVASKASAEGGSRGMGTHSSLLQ
EDNRB (human), sequence (P24530 27-442): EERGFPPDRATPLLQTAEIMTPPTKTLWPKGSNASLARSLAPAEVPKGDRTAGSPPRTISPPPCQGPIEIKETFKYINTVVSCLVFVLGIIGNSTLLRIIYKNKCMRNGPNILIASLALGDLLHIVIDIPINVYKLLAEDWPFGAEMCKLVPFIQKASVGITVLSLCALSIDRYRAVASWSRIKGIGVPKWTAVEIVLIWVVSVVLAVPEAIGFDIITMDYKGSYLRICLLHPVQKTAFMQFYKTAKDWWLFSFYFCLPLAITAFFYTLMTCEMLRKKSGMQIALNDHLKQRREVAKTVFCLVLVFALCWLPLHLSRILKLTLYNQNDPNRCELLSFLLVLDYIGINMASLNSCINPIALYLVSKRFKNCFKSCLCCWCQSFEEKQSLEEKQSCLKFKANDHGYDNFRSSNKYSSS
GCGR (human), sequence (P47871 26-477): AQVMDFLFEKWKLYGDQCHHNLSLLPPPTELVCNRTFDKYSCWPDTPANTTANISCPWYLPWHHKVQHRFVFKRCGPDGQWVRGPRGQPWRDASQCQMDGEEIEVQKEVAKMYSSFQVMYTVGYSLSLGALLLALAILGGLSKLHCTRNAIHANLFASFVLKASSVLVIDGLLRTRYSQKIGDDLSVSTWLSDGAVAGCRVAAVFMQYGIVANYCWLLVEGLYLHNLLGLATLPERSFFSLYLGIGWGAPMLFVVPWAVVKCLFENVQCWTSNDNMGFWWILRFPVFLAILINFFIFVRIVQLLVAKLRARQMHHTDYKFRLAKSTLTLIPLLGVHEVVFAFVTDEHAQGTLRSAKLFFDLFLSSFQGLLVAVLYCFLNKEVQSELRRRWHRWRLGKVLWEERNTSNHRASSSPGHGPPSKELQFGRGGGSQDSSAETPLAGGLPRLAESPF

For {DOTA}-[dF]RCF[dW]KTF[N(2-mercaptoethyl)Gly]-NH2 (disulfide 3-9; also: Ga complex of DOTA) [SEQ ID NO: 4], the IC50 [1] was 1 nM, the IC50 [2] was 140 nM and the Ki [2] was 78 nM. It also gave an IC50 [3] of 56 nM, a Ki [3] of 30 nM and an IC50 [4] of over 1000 nM. For the same binder, the Ki [4] was 880 nM, the % Activity (agonist mode, 1 µM) (HRH4 (human)) was -2% and the % Activity (agonist mode, 1 µM) (GPR109B (human)) was -3%. The % Activity (agonist mode, 1 µM) (CHRM2 (human)) was 0%, the % Activity (agonist mode, 1 µM) (AVPR2 (human)) was 0% and the % Activity (agonist mode, 1 µM) (EDG1 (human)) was 0%. For the same binder, the % Activity (agonist mode, 1 µM) (ADRA2B (human)) was -1%, the % Activity (agonist mode, 1 µM) (GLP1R (human)) was 0% and the % Activity (agonist mode, 1 µM) (CHRM1 (human)) was -1%. The % Activity (agonist mode, 1 µM) (CXCR7 (human)) was -1%, the % Activity (agonist mode, 1 µM) (NPBWR2 (human)) was 1% and the % Activity (agonist mode, 1 µM) (MCHR2 (human)) was 1%. The % Activity (agonist mode, 1 µM) (F2RL3 (human)) was 2%, the % Activity (agonist mode, 1 µM) (BRS3 (human)) was 1% and the % Activity (agonist mode, 1 µM) [5] was 9%. The % Activity (agonist mode, 1 µM) (P2RY2 (human)) was 2%, the % Activity (agonist mode, 1 µM) (CCR1 (human)) was 3% and the % Activity (agonist mode, 1 µM) (OXTR (human)) was 0%. It also gave a % Activity (agonist mode, 1 µM) (P2RY4 (human)) of 1%, a % Activity (agonist mode, 1 µM) (OPRK1 (human)) of -2% and a % Activity (agonist mode, 1 µM) (GPR120 (human)) of -4%. For the same binder, the % Activity (agonist mode, 1 µM) (EDNRA (human)) was -1%, the % Activity (agonist mode, 1 µM) (ADRB2 (human)) was 0% and the % Activity (agonist mode, 1 µM) (GPR103 (human)) was 4%. It also gave a % Activity (agonist mode, 1 µM) (CCR7 (human)) of 1%, a % Activity (agonist mode, 1 µM) (CNR1 (human)) of -1% and a % Activity (agonist mode, 1 µM) [6] of 32%. It also gave a % Activity (agonist mode, 1 µM) (ADRB1 (human)) of 1%, a % Activity (agonist mode, 1 µM) (CHRM4 (human)) of -3% and a % Activity (agonist mode, 1 µM) (DRD1 (human)) of 0%. It also gave a % Activity (agonist mode, 1 µM) (GCGR (human)) of -2%, a % Activity (agonist mode, 1 µM) (BDKRB2 (human)) of 0% and a % Activity (agonist mode, 1 µM) (PPYR1 (human)) of 1%. For the same binder, the % Activity (agonist mode, 1 µM) (PRLHR (human)) was 1%, the % Activity (agonist mode, 1 µM) (CXCR6 (human)) was 1% and the % Activity (agonist mode, 1 µM) (CCR6 (human)) was 0%. For the same binder, the % Activity (agonist mode, 1 µM) (CXCR3 (human)) was -1%, the % Activity (agonist mode, 1 µM) (CRTH2 (human)) was -1% and the % Activity (agonist mode, 1 µM) (CCR5 (human)) was 1%. It also gave a % Activity (agonist mode, 1 µM) (CCKBR (human)) of 2%, a % Activity (agonist mode, 1 µM) (EDNRB (human)) of 0% and a % Activity (agonist mode, 1 µM) (TSHR(L) (human)) of -1%. The % Activity (agonist mode, 1 µM) (ADRA2A (human)) was 3%, the % Activity (agonist mode, 1 µM) (ADRA2C (human)) was -8% and the % Activity (agonist mode, 1 µM) (RXFP3 (human)) was -3%. For the same binder, the % Activity (agonist mode, 1 µM) (F2RL1 (human)) was -4%, the % Activity (agonist mode, 1 µM) (HTR2A (human)) was -1% and the % Activity (agonist mode, 1 µM) (F2R (human)) was 1%. It also gave a % Activity (agonist mode, 1 µM) (FFAR1 (human)) of -4%, a % Activity (agonist mode, 1 µM) (NMU1R (human)) of 1% and a % Activity (agonist mode, 1 µM) ((CR)L-RAMP1 (human)) of -1%. For the same binder, the % Activity (agonist mode, 1 µM) (PTGER4 (human)) was -2%.
